Here are results for five molecules from patent publication US20230090901A1 (GAMMADELTA THERAPEUTICS, published 2023).

The Kd is the concentration at which binding is half-saturated. As a reminder, the EC50 (read off the curve) is the concentration at which the effect is half-maximal.

For one experiment, the target named is T1, BSA (bovine, UniProt P02769).
T1 construct: coated at 3 µg/ml; also called bovine serum albumin, control antigen of the DELFIA ELISA
The experiment can be described thus: DELFIA ELISA, coated antigen.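 Note: binding of antibody supernatants or protein-A purified antibodies to plate-coated antigen (3 µg/ml recombinant TCR or BSA), 1 h incubation at room temperature, DELFIA readout.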

Experiment [1] deals with L2 (DV1-GV2), soluble leucine zipper γδ TCR heterodimer of a delta variable 1 chain and a gamma variable 2 … (human). The experiment can be described thus: DELFIA ELISA, coated antigen. (In general: An ELISA detects its analyte on a solid surface through an enzyme-linked reagent.)
L2 (DV1-GV2), soluble leucine zipper γδ TCR heterodimer of a delta variable 1 chain and a gamma variable 2 … (human), sequence (chain, as listed by the source mutant, chain 1 of 2): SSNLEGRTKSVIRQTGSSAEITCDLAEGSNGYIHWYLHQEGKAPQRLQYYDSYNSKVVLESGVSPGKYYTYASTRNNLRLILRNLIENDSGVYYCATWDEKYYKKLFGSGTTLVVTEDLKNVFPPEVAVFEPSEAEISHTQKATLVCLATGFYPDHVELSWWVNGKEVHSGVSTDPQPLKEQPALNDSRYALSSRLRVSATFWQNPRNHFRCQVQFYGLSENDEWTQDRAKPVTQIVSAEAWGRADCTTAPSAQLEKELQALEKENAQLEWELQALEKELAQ
L2 (DV1-GV2), soluble leucine zipper γδ TCR heterodimer of a delta variable 1 chain and a gamma variable 2 … (human), sequence (chain, as listed by the source mutant, chain 2 of 2): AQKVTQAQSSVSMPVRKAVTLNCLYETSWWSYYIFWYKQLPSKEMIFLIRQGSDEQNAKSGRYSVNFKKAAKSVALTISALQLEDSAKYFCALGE
Method: (§1) A DELFIA ELISA binding method was also employed to assess binding of antibody supernatants or further protein-A purified antibody. In brief, MaxiSorp plates were coated with 3 μg/ml of antigen BSA or L1 (DV1-GV4), L2 (DV1-GV2), L3 (DV1-GV8), or L4 (DV2-GV4) recombinant TCR antigen. Plates were then washed with PBS, blocked with PBS/skimmed milk and then test article added and incubated for 1 hour at room temperature.
The target of experiment [2] is L3 (DV1-GV8), soluble leucine zipper γδ TCR heterodimer of a delta variable 1 chain and a gamma variable 8 … (human). The experiment can be described thus: DELFIA ELISA, coated antigen.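 Note: binding of antibody supernatants or protein-A purified antibodies to plate-coated antigen (3 µg/ml recombinant TCR or BSA), 1 h incubation at room temperature, DELFIA readout.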
L3 (DV1-GV8), soluble leucine zipper γδ TCR heterodimer of a delta variable 1 chain and a gamma variable 8 … (human), sequence (chain, as listed by the source mutant, chain 1 of 2): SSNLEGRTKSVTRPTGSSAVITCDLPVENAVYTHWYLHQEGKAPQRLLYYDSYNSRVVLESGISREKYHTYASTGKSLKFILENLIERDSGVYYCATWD
L3 (DV1-GV8), soluble leucine zipper γδ TCR heterodimer of a delta variable 1 chain and a gamma variable 8 … (human), sequence (chain, as listed by the source mutant, chain 2 of 2): as the sequence (chain, as listed by the source mutant, chain 2 of 2) above
Method: as §1
For experiment [3], the target named is T2, L1 (DV1-GV4), soluble leucine zipper γδ TCR heterodimer of a delta variable 1 chain and a gamma variable 4 … (human).
T2 construct: also called bt-L1; not shown: histidine tag/linker said to follow the zipper
T2 sequence (main, as listed by the source, chain 1 of 2): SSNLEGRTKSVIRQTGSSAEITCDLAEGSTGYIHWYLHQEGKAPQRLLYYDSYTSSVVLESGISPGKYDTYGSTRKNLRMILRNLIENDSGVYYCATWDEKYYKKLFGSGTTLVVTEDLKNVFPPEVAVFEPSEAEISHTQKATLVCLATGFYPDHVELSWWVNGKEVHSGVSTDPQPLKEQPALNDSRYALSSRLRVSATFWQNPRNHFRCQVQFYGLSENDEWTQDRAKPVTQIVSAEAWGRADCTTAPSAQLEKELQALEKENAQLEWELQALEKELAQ
T2 sequence (main, as listed by the source, chain 2 of 2): as the sequence (chain, as listed by the source mutant, chain 2 of 2) above
The experiment can be described thus: DELFIA ELISA, coated antigen.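 Note: binding of antibody supernatants or protein-A purified antibodies to plate-coated antigen (3 µg/ml recombinant TCR or BSA), 1 h incubation at room temperature, DELFIA readout.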

In experiment [4] the target is T2, L1 (DV1-GV4), soluble leucine zipper γδ …. The experiment can be described thus: SPR (Reichert 4SPR), L1 coupled to chip, IgG1 flowed, steady state 1:1 fit; average.
Method: (§2) In brief, the binding affinity of the antibodies to target (i.e. the human Vγ4 chain of a γδ TCR) was established by SPR analysis using a Reichert 4SPR instrument (Reichert Technologies). […] All experiments were performed at room temperature, with the samples kept at 4° C. before flowing over the chip. Steady state fitting was determined according to Langmuir 1:1 binding using software TraceDrawer (Reichert Technologies).
For experiment [5] the target is unchanged. Nature of the experiment: SPR (Reichert 4SPR), L1 coupled to chip, IgG1 flowed, steady state 1:1 fit; experiment 1.
Method: as §2
The target of experiment [6] is T3, Vγ4 chain-bearing γδ TCR on primary human Vγ4+ T cells (skin, PBMC, gut) (human).
T3 construct: Polyclonal natural receptors; only the germline Vγ4 region is common to them; also called primary Vγ4+ T cells; primary skin-derived Vγ4+ T cells
T3 sequence (main, as listed by the source): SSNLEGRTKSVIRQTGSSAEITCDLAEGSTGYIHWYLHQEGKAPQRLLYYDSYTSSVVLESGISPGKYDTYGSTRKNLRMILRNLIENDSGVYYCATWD
Nature of the experiment: flow cytometry titration on skin-derived Vγ4+ T cells, left plot, anti-human IgG1 secondary. A general note: Flow cytometry measures light scatter and fluorescence of single cells or particles in a stream.
Method: Detection was performed by addition of a secondary, fluorescent dye-conjugated antibody against human IgG1 (IS11-12E4.23.20). Cells were then fixed and acquired on the MACSQuant16 flow cytometer. Cells were gated as single, live, IgG1 (Vγ4)⁺. Data shown are the median fluorescent intensity (MFI) of secondary detection antibody detected bound to Vγ4⁺ cells.

In experiment [7] the target is T2, L1 (DV1-GV4), soluble leucine zipper γδ …. Nature of the experiment: SPR (Reichert 4SPR), L1 coupled to chip, IgG1 flowed, steady state 1:1 fit; experiment 2.
Method: as §2
For experiment [8] the target is unchanged. Nature of the experiment: SPR (Reichert 4SPR), L1 coupled to chip, IgG1 flowed, steady state 1:1 fit; average column (one experiment).
Method: as §2

T1 sequence (P02769 25-607 limits assumed): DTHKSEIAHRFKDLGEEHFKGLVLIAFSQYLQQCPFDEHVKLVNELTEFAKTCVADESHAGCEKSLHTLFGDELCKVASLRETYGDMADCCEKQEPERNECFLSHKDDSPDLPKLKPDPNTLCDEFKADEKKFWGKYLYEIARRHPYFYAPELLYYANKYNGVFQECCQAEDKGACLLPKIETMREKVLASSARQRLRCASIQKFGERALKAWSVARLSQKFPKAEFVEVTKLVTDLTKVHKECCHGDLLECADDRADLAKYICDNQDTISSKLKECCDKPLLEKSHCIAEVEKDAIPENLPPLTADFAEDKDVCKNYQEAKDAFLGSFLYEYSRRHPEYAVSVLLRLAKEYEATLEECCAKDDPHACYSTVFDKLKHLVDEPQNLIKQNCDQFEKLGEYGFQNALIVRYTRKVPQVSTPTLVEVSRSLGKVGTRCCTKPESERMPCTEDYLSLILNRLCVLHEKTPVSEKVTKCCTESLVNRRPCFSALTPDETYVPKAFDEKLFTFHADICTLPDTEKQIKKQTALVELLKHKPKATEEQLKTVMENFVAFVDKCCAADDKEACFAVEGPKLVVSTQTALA
Method for BSA: as §1

B1: G4_12 (antibody, human IgG1, V domains shown)
VH: EVQLLESGGGLVQPGGSLRLSCAASGFTVSSNYMSWVRQAPGKGLEWVSVIYSGGSTYYADSVKGRFTISRHNSKNTLYLQMNSLRAEDTAVYYCARVANGDFLDYWGRGTLVTVSS
VL: SQSVLTQPASVSGSPGQSITISCTGTSSDVGGYNFVSWYQQHPGKAPKLMIYEVTNRPSGVPDRFSGSKSGNTASLTISGLQAEDEADYYCSSHASPRVFGTGTKVTVLG
notes: also called 1140_P01_G08; clone G4_12
With B1, the “DELFIA ELISA response (FU)” value with BSA was determined as 80 FU; in experiment [1] it was 229 FU; in [2] it was 252 FU; in experiment [3] it was 237000 FU. Also, the binding result with BSA is “no binding”. The Kd was determined as 19 nM in [4], 17.8 nM in [5] and 20.2 nM in experiment [7]. In [6], the “EC50 (read off the curve)” value was roughly 1 µg/mL.

B2: G4_20 (antibody, human IgG1, V domains shown)
VH: QVQLVESGAEVKKPGASVKVSCKASGGTFSSYAISWVRQAPGQGLEWMGGIIPIFGTANYAQKFQGRVTITVDKSTRTAYMELSSLRSKDTAVYYCARGNSRSDAFDIWGQGTMVTVSS
VL: SSYELTHPPSVSVSPGQTASITCSGDKLGDKFVSWYHQKPGQSPVLVIYQDSKRPSGIPERFSGSNSGNTATLTISGTRAMDEADYYCQAWDSSTVVFGGGTKLTVLG
notes: also called 1254_P02_G02; clone G4_20
Take B2: the “DELFIA ELISA response (FU)” value in the experiment with BSA was found to be 132 FU; in experiment [1] it was 147 FU; in experiment [2], 239 FU; in [3], 184000 FU. Besides, the binding result with BSA is “no binding”. Further, the Kd stood at 52.5 nM in experiment [4], 43 nM in experiment [5] and 62.1 nM in experiment [7]. Moreover, the “EC50 (read off the curve)” value in experiment [6] was roughly 2 µg/mL.

B3: G4_27 (antibody, human IgG1, V domains shown)
VH: QVQLVQSGAEVKKPGESLKISCKSSGYSFTSYWIGWVRQMPGKGLEWMGIIYPGDSDTRYSPSFQGQVTFSADESISTAYLQWSSLKASDTAMYYCARHGAYGDYPDTFDIWGQGTLVTVSS
VL: SSYELTQDPAVSVALGQTVSITCQGDSLRNFYANWYQQKPGQAPVLVIYGKNNRPSGIPDRFSGSSSGNTASLTITGAQAEDEADYYCNSRDSSGNHLVFGGGTQLTVLG
notes: also called 1248_P02_C10; clone G4_27
With B3, the “DELFIA ELISA response (FU)” value in the experiment with BSA is 40 FU; in experiment [1], 579 FU; in experiment [2], 1690 FU; in experiment [3], 138000 FU. The binding result in the experiment with BSA was “no binding”. In addition, the Kd in experiment [5] and in experiment [8] was 261 nM in each case.

B4: G4_3 (antibody, human IgG1, V domains shown)
VH: EVQLVESGGGLVQPGGSLRLSCAASGFTFSSYSMNWVRQAPGKGLEWVSSISSSSSYIYYADSVKGRFTISRDNSKNTLYLQMNSLRAEDTAVYYCARGGWLYDYWGQGTLVTVSS
VL: DIQMTQSPSSLSASVGDRVTITCQASQDISNYLNWYQQKPGKAPKLLIYDASNLETGVPSRFSGSGSGTDFTLTISSLQPEDFATYFCQQSYSTPQTFGQGTKVDIKR
notes: also called 1139_P01_A04; G4_03
For B4, the “DELFIA ELISA response (FU)” value came out at 88 FU in the experiment with BSA, 216 FU in experiment [1], 239 FU in experiment [2] and 213000 FU in experiment [3]. Also, the binding result with BSA is “no binding”. The Kd in experiment [4] was determined as 2.86 nM; in experiment [5] it was 3.69 nM; in [7], 2.03 nM.

B5: G4_18 (antibody, human IgG1, V domains shown)
VH: EVQLVESGAEVKKPGASVKVSCKASGYTFTGYYMHWVRQAPGQGLEWMGRINPNSGGTNYAQKFQGRVTMTRDASISTAYMELSRLRSDDTAVYYCARDLDLSSLDYWGRGTLVTVSS
VL: SSYELTQPPSVTESPGQTARITCSGDALAKQYAYWYQQKPGQAPVLVIYRDSERPSEIPERFSGSSSGTTVTLTISGVQAEDEADYYCQSADSSGTYTVFGGGTKLTVLG
notes: also called 1254_P01_H04; clone G4_18
Turning to B5, the “DELFIA ELISA response (FU)” value with BSA was found to be 67 FU; in experiment [1], 66 FU; in experiment [2] it was 185 FU; in experiment [3] it was 197000 FU. Also, the binding result in the experiment with BSA is “no binding”. Besides, the Kd in experiment [7] and in [8] was 19.9 nM in each case.
